Assay [1] has as its target LARGE1ΔTM (UniProt O95461). As to the kind of experiment: SAXS.
The target of assay [2] is LARGE1ΔTM (UniProt O95461). As to the kind of experiment: SEC-MALS. On the technique in general: Size exclusion chromatography separates by hydrodynamic size, large species first.
In assay [3] the target is LARGE1ΔTM treated with PNGase F (UniProt O95461). As to the kind of experiment: SEC-MALS.
The target of assay [4] is LARGE2ΔTM (UniProt Q8N3Y3). As to the kind of experiment: SAXS.
Assay [5] has as its target LARGE2ΔTM (UniProt Q8N3Y3). As to the kind of experiment: SEC-MALS.
Assay [6] deals with LARGE2ΔTM treated with PNGase F (UniProt Q8N3Y3). The assay is described as follows: SEC-MALS.

The values below come from publication doi:10.1101/2022.05.12.491222.

Sequence of LARGE2ΔTM (Q8N3Y3 whole entry, stated change not applied): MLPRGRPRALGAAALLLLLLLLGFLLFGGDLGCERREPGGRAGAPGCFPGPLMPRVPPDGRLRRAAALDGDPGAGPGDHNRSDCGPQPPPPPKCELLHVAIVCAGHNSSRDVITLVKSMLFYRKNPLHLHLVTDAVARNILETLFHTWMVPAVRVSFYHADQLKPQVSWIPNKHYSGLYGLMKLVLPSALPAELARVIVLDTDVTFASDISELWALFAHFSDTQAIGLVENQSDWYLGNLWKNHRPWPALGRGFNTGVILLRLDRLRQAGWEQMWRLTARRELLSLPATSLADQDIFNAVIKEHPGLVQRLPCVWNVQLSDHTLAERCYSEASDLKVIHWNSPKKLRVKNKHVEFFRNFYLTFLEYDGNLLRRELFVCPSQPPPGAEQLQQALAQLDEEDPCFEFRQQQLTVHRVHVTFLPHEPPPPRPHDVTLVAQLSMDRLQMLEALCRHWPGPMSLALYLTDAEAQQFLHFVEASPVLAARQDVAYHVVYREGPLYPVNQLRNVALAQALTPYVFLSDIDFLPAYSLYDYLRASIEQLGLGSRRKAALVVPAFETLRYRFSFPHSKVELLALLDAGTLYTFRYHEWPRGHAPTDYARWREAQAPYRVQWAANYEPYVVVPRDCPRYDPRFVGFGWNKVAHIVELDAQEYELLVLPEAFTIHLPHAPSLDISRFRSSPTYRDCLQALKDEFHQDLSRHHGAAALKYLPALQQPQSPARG
Sequence of LARGE1ΔTM (O95461 34-756, stated change not applied): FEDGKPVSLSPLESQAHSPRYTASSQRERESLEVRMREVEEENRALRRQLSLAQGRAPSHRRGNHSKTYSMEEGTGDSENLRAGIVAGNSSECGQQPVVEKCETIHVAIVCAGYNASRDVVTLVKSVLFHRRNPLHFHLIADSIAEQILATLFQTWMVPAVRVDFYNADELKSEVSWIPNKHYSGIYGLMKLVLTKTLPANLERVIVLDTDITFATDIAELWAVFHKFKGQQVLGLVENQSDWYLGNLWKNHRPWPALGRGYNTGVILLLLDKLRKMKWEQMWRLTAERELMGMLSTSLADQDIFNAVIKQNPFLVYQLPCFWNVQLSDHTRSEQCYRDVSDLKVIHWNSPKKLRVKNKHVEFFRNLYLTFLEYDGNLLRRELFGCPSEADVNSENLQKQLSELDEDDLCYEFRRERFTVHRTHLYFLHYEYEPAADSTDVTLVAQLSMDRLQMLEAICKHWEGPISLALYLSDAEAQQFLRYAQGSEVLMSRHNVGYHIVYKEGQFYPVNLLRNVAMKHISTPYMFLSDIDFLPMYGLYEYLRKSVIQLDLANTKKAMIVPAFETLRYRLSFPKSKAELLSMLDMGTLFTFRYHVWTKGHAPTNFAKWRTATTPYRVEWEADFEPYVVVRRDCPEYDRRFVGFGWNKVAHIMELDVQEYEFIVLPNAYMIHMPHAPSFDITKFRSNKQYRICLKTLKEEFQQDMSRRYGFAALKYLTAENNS

For orientation: stoichiometry N means a count of units in the complex or per binding partner. As for “LARGE1ΔTM (from UniProt O95461 34-756) (enzyme)”, the stoichiometry N in the assay with LARGE1ΔTM [1] and with LARGE1ΔTM [2] was 2 throughout.

The substance “LARGE1ΔTM treated with PNGase F (from UniProt O95461 34-756) (enzyme)” displayed a stoichiometry N in assay [3] of 2.

As for “LARGE2ΔTM (from UniProt Q8N3Y3 1-721) (enzyme)”, the stoichiometry N with LARGE2ΔTM [4] and in the assay with LARGE2ΔTM [5] was 2 in each case.

For the substance “LARGE2ΔTM treated with PNGase F (from UniProt Q8N3Y3 1-721) (enzyme)”, the stoichiometry N in assay [6] was 2.
